Data on 12 molecules can be found in US7226603.

A word on the Kd: it is the constant that tells how readily two partners part at equilibrium. A higher Kd goes with lower affinity.

Where only a bound is given, the exact number is not on record here.

T1: C-terminally truncated HBV core antigen (aa3-148) (hepatitis B virus), P03146
T1 chain: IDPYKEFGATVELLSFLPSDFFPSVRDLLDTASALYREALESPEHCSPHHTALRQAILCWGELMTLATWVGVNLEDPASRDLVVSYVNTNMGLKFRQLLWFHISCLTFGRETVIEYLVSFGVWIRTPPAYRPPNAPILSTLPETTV

T2: HBV core antigen (hepatitis B virus), P03146
T2 chain: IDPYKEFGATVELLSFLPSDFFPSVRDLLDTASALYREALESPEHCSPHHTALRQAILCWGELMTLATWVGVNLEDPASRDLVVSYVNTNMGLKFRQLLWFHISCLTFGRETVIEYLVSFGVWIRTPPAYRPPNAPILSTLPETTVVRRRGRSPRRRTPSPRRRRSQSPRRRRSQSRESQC

In one assay the target is T1, C-terminally truncated HBV core antigen …. The experiment in a line: EDC/sulpho-NHS crosslinking, SDS-PAGE band shift.
As to MHRSLLGRMKGA (modifications not checked) [peptide … (SEQ ID NO: 40)], the yield of the shifted (crosslinked) protein band is below 50%.

A further assay has as its target T2, HBV core antigen (hepatitis B virus), …. Put plainly: relative dissociation constant (KD^Rel), fd fusion phage with HBV core antigen in solution.
Turning to ADGTLLGRMKLA (modifications not checked) [fd fusion phage carrying … (SEQ ID NO: 17)], the dissociation constant (Kd) was determined as 20 nM.
Turning to ADGSLLGRMKPA (modifications not checked) [fd fusion phage carrying … (SEQ ID NO: 15)], the dissociation constant (Kd) is 322 nM.
Same read-out and setting: the same measure for ADGPRSSLLGRMKGA (modifications not checked) [fd fusion phage carrying … (SEQ ID NO: 23)]: 0.84 nM.
On the same count and under the same terms, the same measure for ADGYQRSLLGRMKGA (modifications not checked) [fd fusion phage carrying … (SEQ ID NO: 25)]: 0.88 nM; for ADGALLGRMKPA (modifications not checked) [fd fusion phage carrying … (SEQ ID NO: 14)]: 767 nM.
The same measure, in the same setting: to ADGALLGRMKRA (modifications not checked) [fd fusion phage carrying … (SEQ ID NO: 16)] belongs 181 nM; to ADRSLLGRMKGA (modifications not checked) [fd fusion phage carrying … (SEQ ID NO: 19)], 1.09 nM; to ADGTQRSLLGRMKGA (modifications not checked) [fd fusion phage carrying … (SEQ ID NO: 26)], 0.84 nM.
Regarding ADGHRSSLLGRMKGA (modifications not checked) [fd fusion phage carrying … (SEQ ID NO: 22)], the Kd is 1.4 nM.
The same measure, in the same setting: the same measure for ADGSRSSLLGRMKGA (modifications not checked) [fd fusion phage carrying … (SEQ ID NO: 20)]: 1.96 nM; for ADGAHRSLLGRMKGA (modifications not checked) [fd fusion phage carrying … (SEQ ID NO: 24)]: 0.94 nM.
